“Also recorded” adds a separate entry of the source.
What was measured:
BAF complexes [1] = assay: Actin in BAF complexes (immunoprecipitation, phalloidin dot blot and phalloidin pull-down); type: cell-based; conditions: A-673 cell nuclear extract
Procedure: Immunoprecipitation. Immunoprecipitation was performed (Shiio, Y., and Eisenman, R. N. (2003) Histone sumoylation is associated with transcriptional repression. Proc Natl Acad Sci USA). The following antibodies were used: rabbit monoclonal anti-BRG1 (ab110641, Abcam), rabbit monoclonal anti-BAF57 (33360, Cell Signaling Technologies), and mouse monoclonal anti-FLAG M2 (F1804, MilliporeSigma).
Phalloidin dot blot assays. The BAF complexes were immuno-purified from nuclear extract using anti-BRG1 or anti-BAF57, (for endogenous BAF) or anti-FLAG antibody (for FLAG-BRG1-containing BAF) and were spotted onto a nitrocellulose membrane (sample amount normalized by cell number). The membrane was allowed to dry at room temperature for 30 minutes. The membrane was rinsed with TBST (150 mM NaCl, 20 mM Tris, pH7.4, 0.05% Tween-20), blocked with 5% BSA in TBST, and incubated with Biotin-XX Phalloidin (Biotium) either overnight at 4° C. or for two hours at room temperature followed by three washes with TBST. The membrane was incubated with High Sensitivity Streptavidin-HRP (21130, Pierce/Thermo Fisher) for one hour and was washed three times with TBST, followed by detection with ECL reagent.

A-673 and EW8 cells = assay: Proliferation of NELL2- or Robo3-silenced Ewing sarcoma cells (IncuCyte); type: cell-based, human; conditions: for Proliferation inhibition by NELL2 silencing, rescue by recombinant protein: A-673 cells transfected with NELL2 siRNAs, recombinant NELL2 250 ng/ml
Procedure: Transfection and viral infection. Calcium phosphate co-precipitation was used for transfection of 293T cells. Lentiviruses were prepared by transfection in 293T cells following System Biosciences' protocol, and the cells infected with lentiviruses were selected with 2 μg/mL puromycin for 48 hours. The target sequences for shRNAs are as follows: FLI1 C-terminus shRNA, […] (SEQ ID NO: 20); luciferase shRNA, […] (SEQ ID NO: 21); NELL2 shRNA-1, […] (SEQ ID NO: 22); and NELL2 shRNA-2, […] (SEQ ID NO: 23). The following siRNAs were used: human NELL2 siRNA SMARTpool (M-012185-00); Dharmacon), human Robo3 siRNA SMARTpool (M-026504-00; Dharmacon), human Robo3 siRNAs NM_022370 (SASI_Hs01_00099511, SASI_Hs01_00099512, SASI_Hs01_00099513, SASI_Hs01_00099514, SASI_Hs01_00099515 and SASI_Hs01_00099516; MilliporeSigma), human cdc42 siRNA SMARTpool (M-005057-01; Dharmacon), human CD133 siRNA SMARTpool (M-010630-01; Dharmacon), human srGAP1 siRNA SMARTpool (M-026974-00; Dharmacon), srGAP2 siRNA SMARTpool (M-021531-03; Dharmacon), human caveolin-1 siRNA SMARTpool (M-003467-01; Dharmacon), human GDF6 siRNA SMARTpool (M-0330055-01; Dharmacon), and Non-Targeting siRNA Pool #2 (D-0012Jun. 14, 2005; Dharmacon), siRNA transfection of cell lines was performed using Lipofectamine™ RNAiMAX Transfection Reagent (Thermo Fisher).
Cell proliferation and xenograft tumorigenicity assays. Anchorage-dependent cell proliferation was assessed by IncuCyte live-cell imaging system (Essen BioScience). The IncuCyte system monitors cell proliferation by analyzing the occupied area (% confluence) of cell images over time. At least four fields from four wells were assayed for each experimental condition. The cell seeding density was 2000 cells per well in a 96-well plate. […] Anchorage-independent cell proliferation was evaluated by soft agar colony formation assays. […] Colonies were grown for three weeks and counted. Colonies (>50 cells) were scored by randomly counting 10 fields per dish. […] Tumor growth was monitored weekly using a caliper. […]

BAF complexes [2] = assay: BAF subunit protein levels by immunoblotting in Ewing sarcoma cells; type: cell-based, human
From the text: Immunoblotting. […] The following antibodies were used: rabbit polyclonal anti-FLI1 (ab15289, Abcam); mouse monoclonal anti-FLAG M2 (F1804, MilliporeSigma): rabbit monoclonal anti-NELL2 (ab181376, Abcam); goat polyclonal anti-PGK1 (sc-17943, Santa Cruz Biotechnology); rabbit polyclonal anti-Robo3 (LS-C345713, LSBio); goat polyclonal anti-Robo3 (PA5-18714, Thermo Fisher Scientific); mouse monoclonal anti-cdc42 (ACD03, Cytoskeleton); rabbit polyclonal anti-Rac1/2/3 (2465, Cell Signaling Technologies); rabbit polyclonal anti-Rho A (2117, Cell Signaling Technologies); goat polyclonal anti-BRG1 (A303-877A, Bethyl Laboratories); rabbit monoclonal anti-BRG1 (49360, Cell Signaling Technologies); rabbit polyclonal anti-BRM (A301-014A-T, Bethyl Laboratories); mouse monoclonal anti-ARID1A/BAF250) (sc-32761, Santa Cruz Biotechnology); rabbit polyclonal anti-BAF170 (A301-039A-T, Bethyl Laboratories); rabbit monoclonal anti-BAF155 (11956, Cell Signaling Technologies); rabbit polyclonal anti-BAF60B (A301-596A-T, Bethyl Laboratories); rabbit polyclonal anti-BAF57 (A300-810A-T, Bethyl Laboratories); rabbit polyclonal anti-BAF53A (A301-391A-T, Bethyl Laboratories); rabbit monoclonal anti-BAF47 (8745, Cell Signaling Technologies); rabbit polyclonal anti-BRD9 (A303-781A-T, Bethyl Laboratories); rabbit monoclonal anti-SS18 (21792, Cell Signaling Technologies); rabbit monoclonal anti-CD133 (64326, Cell Signaling Technologies); rabbit polyclonal anti-srGAP1 (A301-286A-T, Bethyl Laboratories); rabbit polyclonal anti-srGAP2 (GTX130797, GeneTex); mouse monoclonal anti-tubulin (DMIA, Thermo Fisher Scientific); rabbit polyclonal anti-β-actin (4967, Cell Signaling Technologies); mouse monoclonal anti-Rpb1 (2629, Cell Signaling Technologies); rabbit monoclonal anti-cdc6 (3387, Cell Signaling Technologies); rabbit monoclonal anti-caveolin-1 (3267, Cell Signaling Technologies); rabbit polyclonal anti-phospho-caveolin-1 (3251, Cell Signaling Technologies); rabbit monoclonal anti-Src (2123, Cell Signaling Technologies); rabbit monoclonal anti-phospho-Src Family (6943, Cell Signaling Technologies); and rabbit polyclonal anti-GDF6 (NBP1-91934, Novus Biologicals). The following HRP-conjugated secondary antibodies were used: goat anti-rabbit (7074) and goat anti-mouse (7076) (Cell Signaling Technologies); donkey anti-goat (A50)-201P, Bethyl Laboratories).

CD133^low population = assay: Proliferation of sorted CD133low population (IncuCyte); type: cell-based, human
Procedure: Cell proliferation and xenograft tumorigenicity assays. Anchorage-dependent cell proliferation was assessed by IncuCyte live-cell imaging system (Essen BioScience). The IncuCyte system monitors cell proliferation by analyzing the occupied area (% confluence) of cell images over time. At least four fields from four wells were assayed for each experimental condition. The cell seeding density was 2000 cells per well in a 96-well plate. For each assay, biological replicates were performed to confirm the reproducibility of results. Anchorage-independent cell proliferation was evaluated by soft agar colony formation assays. A-673 cells were infected with lentiviruses expressing shRNAs against NELL2 or scrambled shRNA and were selected with 2 μg/ml puromycin. Four days after infection, 4×10^3 cells were plated in soft agar. The soft agar cultures were composed of two layers; a base layer [4 ml in a 60-mm dish; DMEM/10% fetal bovine serum/0.6% noble agar (A5431, MilliporeSigma)/penicillin/streptomycin] and a cell layer (2 ml in a 60-mm dish; DMEM/10% fetal bovine serum/0.3% noble agar/penicillin/streptomycin). Colonies were grown for three weeks and counted. Colonies (>50 cells) were scored by randomly counting 10 fields per dish. Sphere formation assays were done (Dasgupta, A., et al. (2017) Oncotarget 8, 77292-77308) using ultra-low attachment 6-well plates (Corning: seeding density 1×10^4 cells/well) and DMEM/F-12 medium supplemented with B27, human recombinant epidermal growth factor (20 ng/ml), and basic fibroblast growth factor (20 ng/ml). For xenograft tumorigenicity assays, cells were subcutaneously injected into the flanks of SCID mice (2×10^6 cells/injection, five mice/group). Tumor growth was monitored weekly using a caliper. While it is not possible to predict the effect size, the sample size of five mice per group was chosen based on experience with xenograft experiments. Mice were randomly allocated to treatment groups. Blinding of the researcher measuring tumor size was employed.
Flow cytometry. […]

Rac. Ras, or Rab = conditions: Surviladze et al. 2010; cited from earlier work
cdc42 and Rac = assay: GST-PAKI pull-down of active cdc42 and Rac; type: cell-based, human; conditions: FIG. 3D
Procedure: GST pull-down assays. The active form of cdc42, Rac, and Rho A was analyzed by pull-down of whole cell lysate with GST-PAKI (active cdc42 and Rac) and GST-RBD (active Rho A) followed by immunoblotting for cdc42, Rac, and Rho A as described (Ren, X. D., et al. (1999) EMBO J 18, 578-585).

BAF complexes [3] = assay: Gel filtration chromatography of nuclear extract (BAF complex assembly); type: cell-based; conditions: A-673 cells; four-hour treatment
Procedure: Gel filtration chromatography. Nuclear extract was prepared as described (Carey, M. F., et al. (2009) Dignam and Roeder nuclear extract preparation. Cold Spring Harbor protocols 2009, pdb prot5330). The extract (5 mg) was loaded onto HiPrep 16/60 Sephacryl S-400 HR column (GE Healthcare) equilibrated with a gel filtration buffer (150 mM NaCl, 20 mM Hepes-KOH, 10 mM KCl, 1 mM MgCl2, 1 mM EDTA, 1 mM EGTA, 1 mM DTT, pH 7.5). Proteins were eluted at 1 ml/min and 1-ml fractions were collected. Every fourth fraction was concentrated and analyzed by immunoblotting.

[4] = tested on: Robo3-FLAG on A-673 cell surface; assay: Robo3-FLAG cell surface staining in NELL2-silenced cells; type: cell-based, human; conditions: A-673 cells; FIG. 2D
Procedure: Immunofluorescence. Cells grown on coverslips were fixed with 4% paraformaldehyde for 15 minutes at room temperature, washed with PBS, and permeabilized with 0.2% pre-chilled Triton-X 100/PBS for 5 minutes. The samples were blocked with culture medium for one hour and incubated with the primary antibody for three hours followed by the secondary antibody for one hour. The following primary antibodies were used: rabbit polyclonal anti-NELL2 (NBP1-82527, Novus Biologicals); mouse monoclonal anti-FLAG M2 (F1804, MilliporeSigma); mouse monoclonal anti-CD133 AC133 (130-090-422, Miltenyi Biotec); rabbit polyclonal anti-FLI1 (ab15289, Abcam); and mouse monoclonal anti-CD99 (MS-1633-P0, Thermo Fisher Scientific). The following secondary antibodies were used: Alexa Fluor 488, goat anti-rabbit IgG (A11034, Thermo Fisher Scientific); Alexa Fluor 568, goat anti-rabbit IgG (A11036, Thermo Fisher Scientific); Alexa Fluor 488, goat anti-mouse IgM (A21042, Thermo Fisher Scientific); and Alexa Fluor 594, goat anti-mouse IgG (A11032, Thermo Fisher Scientific). Nuclei were stained with DAPI. DyLight™ 554 Phalloidin (13054, Cell Signaling Technologies) was used to visualize filopodia.

[5] = CD133^low population treated with ML141

C/C1=C\[C@H](C)C[C@H](C)OC(=O)C[C@H](c2ccc(O)cc2)NC(=O)[C@@H](Cc2c(Br)[nH]c3ccccc23)N(C)C(=O)[C@H](C)NC(=O)[C@@H](C)C1 [Jasplakinolide]
BRG1 and BRM pulled down by biotin-conjugated phalloidin (BAF complexes [1]): more BRG1 and BRM are pulled down

ML141 [reference compound]
Proliferation inhibition by NELL2 silencing or Robo3 silencing, effect of cdc42 inhibitor (A-673 and EW8 cells; 5 μM ML141, A-673 and EW8 cells, FIG. 3E): abrogates the proliferation inhibition; also recorded: abolished
BRG1, BAF155, and BAF47 protein levels in CD133low population (BAF complexes [2]; [5]): increased BRG1, BAF155, and BAF47 protein levels
Reduction of BRG1, BAF250A, BAF155, and BAF47 by NELL2 silencing, effect of cdc42 inhibitor (BAF complexes [2]; Ewing sarcoma cells, NELL2 silencing): abolished this response
Cell proliferation of CD133low population (CD133^low population; [5]): increased cell proliferation
Inhibition of Rac, Ras, or Rab (Rac. Ras, or Rab): does not inhibit

B1: recombinant NELL2: purified recombinant NELL2 protein added to the culture medium (protein, UniProt Q99435 22-816, looked up)
Protein kinase C-binding …: LGVDPSLQIDVLTELELGESTTGVRQVPGLHNGTKAFLFQDTPRSIKASTATAEQFFQKLRNKHEFTILVTLKQTHLNSGVILSIHHLDHRYLELESSGHRNEVRLHYRSGSHRPHTEVFPYILADDKWHKLSLAISASHLILHIDCNKIYERVVEKPSTDLPLGTTFWLGQRNNAHGYFKGIMQDVQLLVMPQGFIAQCPDLNRTCPTCNDFHGLVQKIMELQDILAKTSAKLSRAEQRMNRLDQCYCERTCTMKGTTYREFESWIDGCKNCTCLNGTIQCETLICPNPDCPLKSALAYVDGKCCKECKSICQFQGRTYFEGERNTVYSSSGVCVLYECKDQTMKLVESSGCPALDCPESHQITLSHSCCKVCKGYDFCSERHNCMENSICRNLNDRAVCSCRDGFRALREDNAYCEDIDECAEGRHYCRENTMCVNTPGSFMCICKTGYIRIDDYSCTEHDECITNQHNCDENALCFNTVGGHNCVCKPGYTGNGTTCKAFCKDGCRNGGACIAANVCACPQGFTGPSCETDIDECSDGFVQCDSRANCINLPGWYHCECRDGYHDNGMFSPSGESCEDIDECGTGRHSCANDTICFNLDGGYDCRCPHGKNCTGDCIHDGKVKHNGQIWVLENDRCSVCSCQNGFVMCRRMVCDCENPTVDLFCCPECDPRLSSQCLHQNGETLYNSGDTWVQNCQQCRCLQGEVDCWPLPCPDVECEFSILPENECCPRCVTDPCQADTIRNDITKTCLDEMNVVRFTGSSWIKHGTECTLCQCKNGHICCSVDPQCLQEL
Proliferation inhibition by NELL2 silencing, rescue by recombinant protein (A-673 and EW8 cells): rescues proliferation arrest; also recorded: completely rescued
Proliferation inhibition by NELL2 silencing, rescue by recombinant protein (A-673 and EW8 cells; listed as Recombinant NELL2): able to rescue the proliferation
BAF subunit levels in NELL2 siRNA-transfected cells (BAF complexes [2]; A-673 and EW8 cells, recombinant NELL2 250 ng/ml, FIG. 3J): restores the protein levels of BAF subunits; also recorded: rescued
CD133 and BAF subunit protein levels in the CD133low population (BAF complexes [2]; four or twenty-four hours, FIG. 5B): increases CD133 and BAF subunits; also recorded: increased CD133, BRG1, BAF250A, BAF155, and BAF47
BRG1, BAF155, and BAF47 levels after NELL2 silencing in the presence of dasatinib (BAF complexes [2]; recombinant NELL2 250 ng/ml, dasatinib present): rescued
Activation of cdc42 and Rac by NELL2 silencing (cdc42 and Rac; lane 1-3): abolished
Active cdc42 and active Rac in srGAP1- and srGAP2-silenced cells (cdc42 and Rac; lane 4-6): not affected
Size of the BAF complexes after NELL2 silencing (BAF complexes [3]): largely restored the size
Recombinant NELL2 concentration able to rescue the slow growth of the CD133low population (CD133^low population; FIG. 5A): ≥ 250 ng/mL
Slow growth of the CD133low population (CD133^low population; FIG. 5A): can be rescued; also recorded: rescues the slow growth
Accumulation of Robo3-FLAG on the cell surface after NELL2 silencing [4]: reversed
